Measurements reported in publication PMC6612559, “Functional characterization of a novel arachidonic acid 12S‐lipoxygenase in the halotolerant bacterium Myxococcus fulvus exhibiting complex social living patterns” (MicrobiologyOpen, 2018).

Substrate: CC/C=C\C/C=C\C/C=C\C/C=C\C/C=C\CCCC(=O)O
Experiment: purified protein
Type: biochemical, Myxococcus fulvus
Details: PBS, no detergent; O2 co-substrate; fit over all substrate concentrations up to 200 µM

B1: MF-LOX1 (Myxococcus fulvus LOX1) (Myxococcus fulvus) (protein)
chain: MTVEYKLRIRTSTKLGAGTDANISVVLVGTRGESGPHVLDKPFHNDFEAGAEDVYSVQASDDVGALLLLRFGNTGGIAADWLLDHAWVTAGERQWSFPFFRWVRAGATVDVLEGTAKLARHAGCEREATARRELLEARRRMYPWRPAEATEGLPGALDLSEAQPLPKDELYRGLTEGSYEVVIARTLAAIKLHLPLLSKAWNGLVDIFDFFKGLEVPRLAPRWQDDLEFARQAVQGINPLHITLIPQLPQGMPLTDEDVKGVLSPGTTLARALDSKRIFLLDFDILEDIPMYRKVDEDGVEERRWAPAARCLLYLDDLRQLRPLAIQLGRDGGKDPVFTPNDDTYDWLAAKIYLRCSEGNTHQMVAHALRTHFVAEPFVMATMRNLPDPHPVYKLLRRHFRYTLAINEGARKGLLAAGGVFDDFIATGGPDKGHLQLGKKGYQRWKLTDNRPREDLEHRGVLDPAVLPYYPYRDDALPLWDALEEYVGGVLRYFYPTDADLEGDTEMQHWWKDLTEHGLPVDKLPCRELSRVDDLVDILTTVVFTVSVQHAAVNYLQYEHYAFVPNAPLCMRREPPRQKGTLCAEDLPEMIPSRSQTLWQVAIGRALSSFGDDEEYLLNEGGWREEYFQEPQVRALRERFEQRLRAQRDVVAARNAGAQVPYTVLSPDRIPCGITV
notes: full length, native protein 676 residues; N-terminal hexa-His tag kept, 32 extra N-terminal residues (pET28b); E. coli, Ni-agarose
Km: 70 µM
kcat: (3.1 ± 1.2) x 10^−2 s^-1
